Laboratory results as given in article PMC7968997.
Changes are numbered by the printed parent chain.

What was measured:
RBM45 RRM1-2 WT [1] = target: T1, RBM45 RRM1-2 WT (Homo sapiens, UniProt Q8IUH3 23-202); experiment: gel filtration, SEC-MALS
T1 sequence: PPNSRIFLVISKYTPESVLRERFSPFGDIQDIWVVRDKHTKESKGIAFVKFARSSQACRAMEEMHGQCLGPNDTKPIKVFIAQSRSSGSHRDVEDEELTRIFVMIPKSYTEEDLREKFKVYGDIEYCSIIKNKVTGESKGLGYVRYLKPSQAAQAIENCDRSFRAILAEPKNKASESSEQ

RBM45 RRM1-2 WT [2] = target: T1, RBM45 RRM1-2 WT; experiment: gel filtration, SEC-MALS; remark: listed apart in the source
[3] = target: T2, RBM45 RRM1-2 F124A/Y165A (RRM1 analog) (Homo sapiens, UniProt Q8IUH3 23-202, F124A;Y165A); experiment: fluorescence polarization
T2 sequence: T1 sequence with F102A, Y143A

[4] = target: T3, RBM45 RRM1-2 F29A/F70A (RRM2 analog) (Homo sapiens, UniProt Q8IUH3 23-202, F29A;F70A); experiment: fluorescence polarization
T3 sequence: T1 sequence with F7A, F48A

RBM45 RRM1-2 WT [5] = target: T1, RBM45 RRM1-2 WT; experiment: fluorescence polarization
RBM45 RRM1-2 WT [6] = target: T1, RBM45 RRM1-2 WT; experiment: gel filtration, SEC-MALS; remark: listed apart in the source
RBM45 RRM1-2 WT [7] = target: T1, RBM45 RRM1-2 WT; experiment: gel filtration, SEC-MALS; remark: listed apart in the source
RBM45 RRM1-2 WT [8] = target: T1, RBM45 RRM1-2 WT; experiment: gel filtration, SEC-MALS; remark: listed apart in the source
RBM45 RRM1-2 WT [9] = target: T1, RBM45 RRM1-2 WT; experiment: gel filtration, SEC-MALS; remark: listed apart in the source
RBM45 RRM1-2 WT [10] = target: T1, RBM45 RRM1-2 WT; experiment: gel filtration, SEC-MALS; remark: listed apart in the source
RBM45 RRM1-2 WT [11] = target: T1, RBM45 RRM1-2 WT; experiment: gel filtration
RBM45 RRM1-2 WT [12] = target: T1, RBM45 RRM1-2 WT; experiment: gel filtration, SEC-MALS; remark: listed apart in the source
RBM45 RRM1-2 WT [13] = target: T1, RBM45 RRM1-2 WT; experiment: fluorescence polarization; remark: listed apart in the source
RBM45 RRM1-2 WT [14] = target: T1, RBM45 RRM1-2 WT; experiment: crystal structure
[15] = target: T2, RBM45 RRM1-2 F124A/Y165A (RRM1 analog); experiment: fluorescence polarization; remark: listed apart in the source
[16] = target: T3, RBM45 RRM1-2 F29A/F70A (RRM2 analog); experiment: fluorescence polarization; remark: listed apart in the source

B1: 26-mer 2-GAC RNA (ssRNA)
RNA: CGACGGUUUUUUUUUUUUUUGGACGC
B1: binds (RBM45 RRM1-2 WT [1]).

B2: 11-mer 2-GAC RNA (ssRNA)
RNA: CGACGGGACGC
B2: binds (RBM45 RRM1-2 WT [2]).

B3: GG(m6A)CGG RNA (ssRNA)
RNA: GGACGG
modifications: m6A at position 3
B3: binds [3]; binds [4]; binds (RBM45 RRM1-2 WT [5]).

B4: 20-mer 2-GAC RNA (ssRNA)
RNA: CGACGGUUUUUUUUGGACGC
B4: binds (RBM45 RRM1-2 WT [6]).

B5: 12-mer 2-GAC RNA (ssRNA)
RNA: CGACGGGGACGC
B5: binds (RBM45 RRM1-2 WT [7]).

B6: 12-mer GAC-polyU RNA (ssRNA)
RNA: CGACGGUUUUUU
B6: binds (RBM45 RRM1-2 WT [8]).

B7: 18-mer 2-GAC RNA (ssRNA)
RNA: CGACGGUUUUUUGGACGC
B7: binds (RBM45 RRM1-2 WT [9]).

B8: 14-mer 2-GAC RNA (ssRNA)
RNA: CGACGGUUGGACGC
B8: binds (RBM45 RRM1-2 WT [10]).

B9: 9-mer 2-GAC RNA (ssRNA)
RNA: CGACGACGC
B9: binds (RBM45 RRM1-2 WT [11]).

B10: 22-mer 2-GAC RNA (ssRNA)
RNA: CGACGGUUUUUUUUUUGGACGC
B10: binds (RBM45 RRM1-2 WT [12]).

B11: polyU 6-mer RNA (ssRNA)
RNA: UUUUUU
For B11, the Kd (RBM45 RRM1-2 WT [13]) was 57200 ± 10200 nM.

B12: 11-nt ssDNA (ssDNA)
DNA: CGACGGGACGC
B12: binds (RBM45 RRM1-2 WT [14]).

B13: 16-mer 2-GAC RNA (ssRNA)
RNA: CGACGGUUUUGGACGC
B13: binds (RBM45 RRM1-2 WT [10]).

B14: GGACGG ssDNA (ssDNA)
DNA: GGACGG
Binder B14 has a Kd [15] of 1210 ± 90 nM, a Kd [16] of 2310 ± 190 nM and a Kd (RBM45 RRM1-2 WT [13]) of 805 ± 108 nM.

B15: 10-mer 2-GAC RNA (ssRNA)
RNA: CGACGGACGC
B15: binds (RBM45 RRM1-2 WT [11]).
